B1: Protein AATF (Homo sapiens), Q9NY61 (parent)
chain: MAGPQPLALQLEQLLNPRPSEADPEADPEEATAARVIDRFDEGEDGEGDFLVVGSIRKLASASLLDTDKRYCGKTTSRKAWNEDHWEQTLPGSSDEEISDEEGSGDEDSEGLGLEEYDEDDLGAAEEQECGDHRESKKSRSHSAKTPGFSVQSISDFEKFTKGMDDLGSSEEEEDEESGMEEGDDAEDSQGESEEDRAGDRNSEDDGVVMTFSSVKVSEEVEKGRAVKNQIALWDQLLEGRIKLQKALLTTNQLPQPDVFPLFKDKGGPEFSSALKNSHKALKALLRSLVGLQEELLFQYPDTRYLVDGTKPNAGSEEISSEDDELVEEKKQQRRRVPAKRKLEMEDYPSFMAKRFADFTVYRNRTLQKWHDKTKLASGKLGKGFGAFERSILTQIDHILMDKERLLRRTQTKRSVYRVLGKPEPAAQPVPESLPGEPEILPQAPANAHLKDLDEEIFDDDDFYHQLLRELIERKTSSLDPNDQVAMGRQWLAIQKLRSKIHKKVDRKASKGRKLRFHVLSKLLSFMAPIDHTTMNDDARTELYRSLFGQLHPPDEGHGD

Variants of: B1
Settings: with chk2_human CHEK2, O96017
Sequence of chk2_human CHEK2, O96017 (O96017 whole entry): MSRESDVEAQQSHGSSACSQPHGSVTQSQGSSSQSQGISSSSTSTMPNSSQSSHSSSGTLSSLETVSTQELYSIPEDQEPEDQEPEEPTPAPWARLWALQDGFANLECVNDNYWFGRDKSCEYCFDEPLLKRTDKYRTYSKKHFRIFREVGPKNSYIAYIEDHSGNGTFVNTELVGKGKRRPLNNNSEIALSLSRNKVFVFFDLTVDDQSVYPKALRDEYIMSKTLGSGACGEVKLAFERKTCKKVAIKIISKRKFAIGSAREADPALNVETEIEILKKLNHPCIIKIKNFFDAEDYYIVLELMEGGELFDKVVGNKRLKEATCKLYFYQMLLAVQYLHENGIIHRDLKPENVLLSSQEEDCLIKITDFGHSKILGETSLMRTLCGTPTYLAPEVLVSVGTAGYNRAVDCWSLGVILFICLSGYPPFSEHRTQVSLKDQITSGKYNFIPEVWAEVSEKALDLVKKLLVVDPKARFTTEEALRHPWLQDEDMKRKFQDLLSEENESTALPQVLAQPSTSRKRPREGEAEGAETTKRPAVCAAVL

Row | effect of a mutation on the interaction | Variant
1 | disrupting interaction | MAGPQPLALQLEQLLNPRPSEADPEADPEEATAARVIDRFDEGEDGEGDFLVVGSIRKLASASLLDTDKRYCGKTTSRKAWNEDHWEQTLPGSSDEEISDEEGSGDEDSEGLGLEEYDEDDLGAAEEQECGDHRESKKSRSHAAKTPGFSVQSISDFEKFTKGMDDLGSSEEEEDEESGMEEGDDAEDSQGESEEDRAGDRNSEDDGVVMTFSSVKVSEEVEKGRAVKNQIALWDQLLEGRIKLQKALLTTNQLPQPDVFPLFKDKGGPEFSSALKNSHKALKALLRSLVGLQEELLFQYPDTRYLVDGTKPNAGSEEISSEDDELVEEKKQQRRRVPAKRKLEMEDYPSFMAKRFADFTVYRNRTLQKWHDKTKLASGKLGKGFGAFERSILTQIDHILMDKERLLRRTQTKRSVYRVLGKPEPAAQPVPESLPGEPEILPQAPANAHLKDLDEEIFDDDDFYHQLLRELIERKTASLDPNDQVAMGRQWLAIQKLRSKIHKKVDRKAAKGRKLRFHVLSKLLSFMAPIDHTTMNDDARTELYRSLFGQLHPPDEGHGD [S143A;S477A;S510A]
2 | decreasing interaction | MAGPQPLALQLEQLLNPRPSEADPEADPEEATAARVIDRFDEGEDGEGDFLVVGSIRKLASASLLDTDKRYCGKTTSRKAWNEDHWEQTLPGSSDEEISDEEGSGDEDSEGLGLEEYDEDDLGAAEEQECGDHRESKKSRAHSAKTPGFSVQSISDFEKFTKGMDDLGSSEEEEDEESGMEEGDDAEDSQGESEEDRAGDRNSEDDGVVMTFSSVKVSEEVEKGRAVKNQIALWDQLLEGRIKLQKALLTTNQLPQPDVFPLFKDKGGPEFSSALKNSHKALKALLRSLVGLQEELLFQYPDTRYLVDGTKPNAGSEEISSEDDELVEEKKQQRRRVPAKRKLEMEDYPSFMAKRFADFTVYRNRTLQKWHDKTKLASGKLGKGFGAFERSILTQIDHILMDKERLLRRTQTKRSVYRVLGKPEPAAQPVPESLPGEPEILPQAPANAHLKDLDEEIFDDDDFYHQLLRELIEAKTSSLDPNDQVAMGRQWLAIQKLRSKIHKKVDRKASKGRKLRFHVLSKLLSFMAPIDHTTMNDDARTELYRSLFGQLHPPDEGHGD [S141A;R474A]
3 | decreasing interaction | MAGPQPLALQLEQLLNPRPSEADPEADPEEATAARVIDRFDEGEDGEGDFLVVGSIRKLASASLLDTDKRYCGKTTSRKAWNEDHWEQTLPGSSDEEISDEEGSGDEDSEGLGLEEYDEDDLGAAEEQECGDHRESKKSRAHSAKTPGFSVQSISDFEKFTKGMDDLGSSEEEEDEESGMEEGDDAEDSQGESEEDRAGDRNSEDDGVVMTFSSVKVSEEVEKGRAVKNQIALWDQLLEGRIKLQKALLTTNQLPQPDVFPLFKDKGGPEFSSALKNSHKALKALLRSLVGLQEELLFQYPDTRYLVDGTKPNAGSEEISSEDDELVEEKKQQRRRVPAKRKLEMEDYPSFMAKRFADFTVYRNRTLQKWHDKTKLASGKLGKGFGAFERSILTQIDHILMDKERLLRRTQTKRSVYRVLGKPEPAAQPVPESLPGEPEILPQAPANAHLKDLDEEIFDDDDFYHQLLRELIERKTSSLDPNDQVAMGRQWLAIQKLRSKIHKKVDRAASKGRKLRFHVLSKLLSFMAPIDHTTMNDDARTELYRSLFGQLHPPDEGHGD [S141A;K508A]

Variants of: B1
Settings: with atm_human ATM

Row | effect of a mutation on the interaction | Variant
4 | disrupting interaction | MAGPQPLALQLEQLLNPRPSEADPEADPEEATAARVIDRFDEGEDGEGDFLVVGSIRKLASASLLDTDKRYCGKTTSRKAWNEDHWEQTLPGSSDEEISDEEGSGDEDSEGLGLEEYDEDDLGAAEEQECGDHRESKKSRSHSAKTPGFSVQSISDFEKFTKGMDDLGSSEEEEDEESGMEEGDDAEDAQGESEEDRAGDRNSEDDGVVMTFSSVKVSEEVEKGRAVKNQIALWDQLLEGRIKLQKALLTTNQLPQPDVFPLFKDKGGPEFSSALKNSHKALKALLRSLVGLQEELLFQYPDTRYLVDGTKPNAGSEEISSEDDELVEEKKQQRRRVPAKRKLEMEDYPSFMAKRFADFTVYRNRTLQKWHDKTKLASGKLGKGFGAFERSILTQIDHILMDKERLLRRTQTKRSVYRVLGKPEPAAQPVPESLPGEPEILPQAPANAHLKDLDEEIFDDDDFYHQLLRELIERKTSSLDPNDQVAMGRQWLAIQKLRSKIHKKVDRKASKGRKLRFHVLSKLLSFMAPIDHTTMNDDARTELYRSLFGQLHPPDEGHGD [S189A]

Variants of: B1
Settings: with tf65_human RELA

Row | effect of a mutation on the interaction | Variant
5 | disrupting interaction | MAGPQPLALQLEQLLNPRPSEADPEADPEEATAARVIDRFDEGEDGEGDFLVVGSIRKLASASLLDTDKRYCGKTTSRKAWNEDHWEQTLPGSSDEEISDEEGSGDEDSEGLGLEEYDEDDLGAAEEQECGDHRESKKSRSHAAKTPGFSVQSISDFEKFTKGMDDLGSSEEEEDEESGMEEGDDAEDAQGESEEDRAGDRNSEDDGVVMTFSSVKVSEEVEKGRAVKNQIALWDQLLEGRIKLQKALLTTNQLPQPDVFPLFKDKGGPEFSSALKNSHKALKALLRSLVGLQEELLFQYPDTRYLVDGTKPNAGSEEISSEDDELVEEKKQQRRRVPAKRKLEMEDYPSFMAKRFADFTVYRNRTLQKWHDKTKLASGKLGKGFGAFERSILTQIDHILMDKERLLRRTQTKRSVYRVLGKPEPAAQPVPESLPGEPEILPQAPANAHLKDLDEEIFDDDDFYHQLLRELIERKTASLDPNDQVAMGRQWLAIQKLRSKIHKKVDRKAAKGRKLRFHVLSKLLSFMAPIDHTTMNDDARTELYRSLFGQLHPPDEGHGD [S143A;S189A;S477A;S510A]

— IntAct's records for PubMed 17157788
